Data from PMC5473912, “Regulation of sub-compartmental targeting and folding properties of the Prion-like protein Shadoo” (Scientific Reports, 2017).

Molecular target: T1, Calreticulin (CRT), endogenous mouse (mouse (endogenous in GT1), UniProt P14211 18-416)
T1 construct: Calreticulin (CRT), mouse, immunoprecipitated with anti-CRT antibody; also called ER chaperone Calreticulin; source: endogenous, GT1 lysate
T1 sequence (looked up): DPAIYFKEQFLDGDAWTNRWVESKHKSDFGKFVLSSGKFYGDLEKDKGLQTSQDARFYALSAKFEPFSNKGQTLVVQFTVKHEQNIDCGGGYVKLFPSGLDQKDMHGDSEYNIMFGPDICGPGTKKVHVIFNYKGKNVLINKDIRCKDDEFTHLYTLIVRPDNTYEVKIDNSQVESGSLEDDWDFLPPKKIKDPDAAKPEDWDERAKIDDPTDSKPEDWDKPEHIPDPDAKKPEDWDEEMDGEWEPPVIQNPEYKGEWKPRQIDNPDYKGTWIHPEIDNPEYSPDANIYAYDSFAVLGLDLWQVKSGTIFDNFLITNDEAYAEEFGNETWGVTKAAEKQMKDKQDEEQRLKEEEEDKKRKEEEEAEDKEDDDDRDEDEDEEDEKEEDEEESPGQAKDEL
Test: co-IP; Calreticulin immunoprecipitated from GT1 lysates (JS buffer, 1% TX-100, 150 mM NaCl, pH 7.5) with anti-CRT Ab and protein A-Sepharose overnight at 4 °C; Sho revealed by Western blot with SPRN-R12; cells under control conditions or cholesterol depletion (βCD 10 mM, 1 h)
Details: partners not purified

B1: Shadoo (Sho), mature fully glycosylated ~22 kDa isoform, endogenous mouse (natural protein, mouse (endogenous in GT1), UniProt Q8BWU1 25-122, looked up)
chain: KGGRGGARGSARGVRGGARGASRVRVRPAPRYGSSLRVAAAGAAAGAAAGVAAGLATGSGWRRTSGPGELGLEDDENGAMGGNGTDRGVYSYWAWTSG
modifications: fully N-glycosylated (complex-glycosylated)
notes: Shadoo (Sho, SPRN), mouse, the mature fully glycosylated isoform that migrates at ~22 kDa; also called mature Sho; mature glycosylated Sho; source: endogenous, GT1 lysate
fold increase in the immunocomplex upon cholesterol depletion against control: ~3 fold
